Experimental data as given in article doi:10.1101/411223 (bioRxiv, 2018).

T1: Kap114p (Δ347-371) (S. cerevisiae, UniProt P53067 1-1004, Δ347-371)
T1 sequence (looked up): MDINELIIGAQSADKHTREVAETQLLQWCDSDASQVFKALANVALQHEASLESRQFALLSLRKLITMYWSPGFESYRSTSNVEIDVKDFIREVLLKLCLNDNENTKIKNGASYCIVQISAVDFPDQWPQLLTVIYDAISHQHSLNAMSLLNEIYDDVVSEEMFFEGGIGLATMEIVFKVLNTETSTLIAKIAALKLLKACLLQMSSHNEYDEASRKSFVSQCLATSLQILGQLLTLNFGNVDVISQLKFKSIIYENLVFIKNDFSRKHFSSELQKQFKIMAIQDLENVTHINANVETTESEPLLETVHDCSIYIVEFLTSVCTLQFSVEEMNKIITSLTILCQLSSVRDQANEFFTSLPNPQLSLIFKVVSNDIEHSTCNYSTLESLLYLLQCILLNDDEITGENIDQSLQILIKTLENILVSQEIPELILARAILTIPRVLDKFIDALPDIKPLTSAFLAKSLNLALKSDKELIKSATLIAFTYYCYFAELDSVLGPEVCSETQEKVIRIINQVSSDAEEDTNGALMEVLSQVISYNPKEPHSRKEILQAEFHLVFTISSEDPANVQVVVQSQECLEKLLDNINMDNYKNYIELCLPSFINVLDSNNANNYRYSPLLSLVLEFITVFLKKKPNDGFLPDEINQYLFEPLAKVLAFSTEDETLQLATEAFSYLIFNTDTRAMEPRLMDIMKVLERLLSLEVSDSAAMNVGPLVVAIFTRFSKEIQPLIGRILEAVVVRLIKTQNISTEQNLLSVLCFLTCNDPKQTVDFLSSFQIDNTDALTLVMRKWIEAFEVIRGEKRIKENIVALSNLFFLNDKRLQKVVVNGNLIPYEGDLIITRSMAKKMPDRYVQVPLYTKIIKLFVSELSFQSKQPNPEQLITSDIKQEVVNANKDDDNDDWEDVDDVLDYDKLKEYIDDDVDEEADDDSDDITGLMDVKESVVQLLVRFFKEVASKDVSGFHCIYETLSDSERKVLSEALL

T2: Kap114p (Δ899-956) (S. cerevisiae, UniProt P53067 1-1004, Δ899-956)
T2 sequence (looked up): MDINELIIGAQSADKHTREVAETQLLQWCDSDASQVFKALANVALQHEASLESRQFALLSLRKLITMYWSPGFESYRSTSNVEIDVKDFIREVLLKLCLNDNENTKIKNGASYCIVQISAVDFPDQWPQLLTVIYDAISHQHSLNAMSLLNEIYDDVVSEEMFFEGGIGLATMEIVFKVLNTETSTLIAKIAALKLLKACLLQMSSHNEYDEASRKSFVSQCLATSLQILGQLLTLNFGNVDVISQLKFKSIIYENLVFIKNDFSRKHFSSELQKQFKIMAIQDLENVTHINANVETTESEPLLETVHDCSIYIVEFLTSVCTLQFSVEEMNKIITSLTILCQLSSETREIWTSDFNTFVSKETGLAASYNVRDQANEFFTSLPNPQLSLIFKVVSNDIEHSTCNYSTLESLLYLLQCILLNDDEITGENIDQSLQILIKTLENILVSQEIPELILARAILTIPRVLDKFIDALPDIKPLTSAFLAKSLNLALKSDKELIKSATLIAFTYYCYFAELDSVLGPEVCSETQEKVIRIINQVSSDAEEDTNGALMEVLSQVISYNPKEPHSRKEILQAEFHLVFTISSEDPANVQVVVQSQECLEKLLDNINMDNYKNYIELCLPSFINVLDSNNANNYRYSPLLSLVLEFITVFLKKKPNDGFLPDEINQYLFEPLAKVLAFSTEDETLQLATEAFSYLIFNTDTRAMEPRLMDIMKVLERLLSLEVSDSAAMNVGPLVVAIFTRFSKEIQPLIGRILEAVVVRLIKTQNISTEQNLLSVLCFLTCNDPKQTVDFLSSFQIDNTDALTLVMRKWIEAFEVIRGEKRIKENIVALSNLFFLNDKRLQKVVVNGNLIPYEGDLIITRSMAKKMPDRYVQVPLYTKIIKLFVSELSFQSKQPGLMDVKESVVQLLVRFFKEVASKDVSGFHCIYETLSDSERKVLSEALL


Columns and labels:
Kap114p (Δ347-371) = molecular target: T1, Kap114p (Δ347-371); experiment: pull-down
Kap114p (Δ899-956) = molecular target: T2, Kap114p (Δ899-956); experiment: pull-down
[1] = molecular target: His-tagged RanQ69L, P62826; experiment: SEC; conditions: remark: other sources report otherwise

Row | binding result (Kap114p (Δ347-371)) | binding result (Kap114p (Δ899-956)) | stoichiometry N [1] | Binder
1 | binds | binds | – | GST-fused yTBP (61-240) (domain or fragment, S. cerevisiae, UniProt P13393 61-240, looked up) SGIVPTLQNIVATVTLGCRLDLKTVALHARNAEYNPKRFAAVIMRIREPKTTALIFASGKMVVTGAKSEDDSKLASRKYARIIQKIGFAAKFTDFKIQNIVGSCDVKFPIRLEGLAFSHGTFSSYEPELFPGLIYRMVKPKIVLLIFVSGKIVLTGAKQREEIYQAFEAIYPVLSEFRKM
2 | – | – | 1 | Kap114p, P53067 1-1004 (natural protein) MDINELIIGAQSADKHTREVAETQLLQWCDSDASQVFKALANVALQHEASLESRQFALLSLRKLITMYWSPGFESYRSTSNVEIDVKDFIREVLLKLCLNDNENTKIKNGASYCIVQISAVDFPDQWPQLLTVIYDAISHQHSLNAMSLLNEIYDDVVSEEMFFEGGIGLATMEIVFKVLNTETSTLIAKIAALKLLKACLLQMSSHNEYDEASRKSFVSQCLATSLQILGQLLTLNFGNVDVISQLKFKSIIYENLVFIKNDFSRKHFSSELQKQFKIMAIQDLENVTHINANVETTESEPLLETVHDCSIYIVEFLTSVCTLQFSVEEMNKIITSLTILCQLSSETREIWTSDFNTFVSKETGLAASYNVRDQANEFFTSLPNPQLSLIFKVVSNDIEHSTCNYSTLESLLYLLQCILLNDDEITGENIDQSLQILIKTLENILVSQEIPELILARAILTIPRVLDKFIDALPDIKPLTSAFLAKSLNLALKSDKELIKSATLIAFTYYCYFAELDSVLGPEVCSETQEKVIRIINQVSSDAEEDTNGALMEVLSQVISYNPKEPHSRKEILQAEFHLVFTISSEDPANVQVVVQSQECLEKLLDNINMDNYKNYIELCLPSFINVLDSNNANNYRYSPLLSLVLEFITVFLKKKPNDGFLPDEINQYLFEPLAKVLAFSTEDETLQLATEAFSYLIFNTDTRAMEPRLMDIMKVLERLLSLEVSDSAAMNVGPLVVAIFTRFSKEIQPLIGRILEAVVVRLIKTQNISTEQNLLSVLCFLTCNDPKQTVDFLSSFQIDNTDALTLVMRKWIEAFEVIRGEKRIKENIVALSNLFFLNDKRLQKVVVNGNLIPYEGDLIITRSMAKKMPDRYVQVPLYTKIIKLFVSELSFQSKQPNPEQLITSDIKQEVVNANKDDDNDDWEDVDDVLDYDKLKEYIDDDVDEEADDDSDDITGLMDVKESVVQLLVRFFKEVASKDVSGFHCIYETLSDSERKVLSEALL
